# Source: publication PMC9709245, “The stem region of α1,6-fucosyltransferase FUT8 is required for multimer formation but not catalytic activity” (The Journal of Biological Chemistry, 2022)
# Positions count from the first letter of the chain named. Names may count otherwise.
# T1: alpha-1,6-fucosyltransferase FUT8 WT (human, UniProt Q9BYC5 1-575)
# T1 construct: No chain bears both Myc and 3xFLAG; also called Myc-FUT8; Myc-tagged FUT8; source: HEK293 FUT8KO, transfected, in lysate; not shown: Myc (copy from pcDNA6-mycHisA), C-terminal, kept; His tag (from the vector pcDNA6-mycHisA); 3xFLAG (other copy; from pME-3xFLAG), C-terminal, kept
# T1 sequence (looked up): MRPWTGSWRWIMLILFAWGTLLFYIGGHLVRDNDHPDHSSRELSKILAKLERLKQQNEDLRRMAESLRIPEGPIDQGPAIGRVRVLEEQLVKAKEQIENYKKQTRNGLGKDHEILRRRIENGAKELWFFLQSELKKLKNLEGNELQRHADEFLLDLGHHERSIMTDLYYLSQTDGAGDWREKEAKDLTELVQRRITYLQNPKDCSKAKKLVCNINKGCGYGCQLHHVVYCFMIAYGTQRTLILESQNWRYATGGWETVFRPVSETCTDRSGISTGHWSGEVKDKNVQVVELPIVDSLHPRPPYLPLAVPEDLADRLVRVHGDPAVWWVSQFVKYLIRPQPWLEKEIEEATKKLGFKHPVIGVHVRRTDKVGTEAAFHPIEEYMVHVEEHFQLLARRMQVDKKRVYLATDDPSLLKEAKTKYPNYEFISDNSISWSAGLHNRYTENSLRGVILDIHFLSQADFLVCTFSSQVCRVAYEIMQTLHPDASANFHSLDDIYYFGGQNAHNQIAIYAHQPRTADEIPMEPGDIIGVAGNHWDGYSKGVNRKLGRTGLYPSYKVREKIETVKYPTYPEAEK
# B1: FUT8 stem (N-terminal part of FUT8, cytosolic region to stem region) fused with LgBiT or SmBiT (domain or fragment, human, UniProt Q9BYC5 1-108, looked up)
# chain: MRPWTGSWRWIMLILFAWGTLLFYIGGHLVRDNDHPDHSSRELSKILAKLERLKQQNEDLRRMAESLRIPEGPIDQGPAIGRVRVLEEQLVKAKEQIENYKKQTRNGL
# notes: human FUT8, 1st to 326th base of the cDNA: cytosolic region, transmembrane region and stem region (stem ends at Leu108); Two differently tagged copies of the same fragment; no chain bears both LgBiT and SmBiT; The 326th base is two bases past codon 108; also called FUT8 stem-LgBiT; FUT8 stem-SmBiT; source: HEK293 FUT8KO, transfected, in lysate; not shown: LgBiT (one copy; vector pBiT1.1-C …)
# B2: FUT8Δstem-GSx22 (enzyme, human)
# chain: MRPWTGSWRWIMLILFAWGTLLFYIGGHLGSGSGSGSGSGSGSGSGSGSGSGSGSGSGSGSGSGSGSGSGSGSGKDHEILRRRIENGAKELWFFLQSELKKLKNLEGNELQRHADEFLLDLGHHERSIMTDLYYLSQTDGAGDWREKEAKDLTELVQRRITYLQNPKDCSKAKKLVCNINKGCGYGCQLHHVVYCFMIAYGTQRTLILESQNWRYATGGWETVFRPVSETCTDRSGISTGHWSGEVKDKNVQVVELPIVDSLHPRPPYLPLAVPEDLADRLVRVHGDPAVWWVSQFVKYLIRPQPWLEKEIEEATKKLGFKHPVIGVHVRRTDKVGTEAAFHPIEEYMVHVEEHFQLLARRMQVDKKRVYLATDDPSLLKEAKTKYPNYEFISDNSISWSAGLHNRYTENSLRGVILDIHFLSQADFLVCTFSSQVCRVAYEIMQTLHPDASANFHSLDDIYYFGGQNAHNQIAIYAHQPRTADEIPMEPGDIIGVAGNHWDGYSKGVNRKLGRTGLYPSYKVREKIETVKYPTYPEAEK
# notes: human FUT8, start codon to the 87th base of the cDNA; the stem region Val30-Leu108 is replaced; glycine-serine repeat of 44 amino acids; human FUT8, 325th to 1725th base of the cDNA (coiled-coil domain to the C terminus); Anti-Myc blots show two bands (full size and about 50 kDa); also called Myc-tagged FUT8Δstem-GSx22; source: HEK293 FUT8KO, transfected, in lysate; not shown: Myc, C-terminal, …
# B3: FUT8Δstem-GSx40 (enzyme, human)
# chain: MRPWTGSWRWIMLILFAWGTLLFYIGGHLGSGSGSGSGSGSGSGSGSGSGSGSGSGSGSGSGSGSGSGSGSGSGSGSGSGSGSGSGSGSGSGSGSGSGSGSGSGSGSGSGKDHEILRRRIENGAKELWFFLQSELKKLKNLEGNELQRHADEFLLDLGHHERSIMTDLYYLSQTDGAGDWREKEAKDLTELVQRRITYLQNPKDCSKAKKLVCNINKGCGYGCQLHHVVYCFMIAYGTQRTLILESQNWRYATGGWETVFRPVSETCTDRSGISTGHWSGEVKDKNVQVVELPIVDSLHPRPPYLPLAVPEDLADRLVRVHGDPAVWWVSQFVKYLIRPQPWLEKEIEEATKKLGFKHPVIGVHVRRTDKVGTEAAFHPIEEYMVHVEEHFQLLARRMQVDKKRVYLATDDPSLLKEAKTKYPNYEFISDNSISWSAGLHNRYTENSLRGVILDIHFLSQADFLVCTFSSQVCRVAYEIMQTLHPDASANFHSLDDIYYFGGQNAHNQIAIYAHQPRTADEIPMEPGDIIGVAGNHWDGYSKGVNRKLGRTGLYPSYKVREKIETVKYPTYPEAEK
# notes: human FUT8, start codon to the 87th base of the cDNA; the stem region Val30-Leu108 is replaced; glycine-serine repeat of 80 amino acids; human FUT8, 325th to 1725th base of the cDNA (coiled-coil domain to the C terminus); Anti-Myc blots show two bands (full size and about 50 kDa); also called Myc-tagged FUT8Δstem-GSx40; source: HEK293 FUT8KO, transfected, in lysate; not shown: Myc, C-terminal, …
# B4: FUT8Δhelix 1 (enzyme, human, UniProt Q9BYC5 1-575, looked up)
# chain: MRPWTGSWRWIMLILFAWGTLLFYIGGHLVRDNDHRIPEGPIDQGPAIGRVRVLEEQLVKAKEQIENYKKQTRNGLGKDHEILRRRIENGAKELWFFLQSELKKLKNLEGNELQRHADEFLLDLGHHERSIMTDLYYLSQTDGAGDWREKEAKDLTELVQRRITYLQNPKDCSKAKKLVCNINKGCGYGCQLHHVVYCFMIAYGTQRTLILESQNWRYATGGWETVFRPVSETCTDRSGISTGHWSGEVKDKNVQVVELPIVDSLHPRPPYLPLAVPEDLADRLVRVHGDPAVWWVSQFVKYLIRPQPWLEKEIEEATKKLGFKHPVIGVHVRRTDKVGTEAAFHPIEEYMVHVEEHFQLLARRMQVDKKRVYLATDDPSLLKEAKTKYPNYEFISDNSISWSAGLHNRYTENSLRGVILDIHFLSQADFLVCTFSSQVCRVAYEIMQTLHPDASANFHSLDDIYYFGGQNAHNQIAIYAHQPRTADEIPMEPGDIIGVAGNHWDGYSKGVNRKLGRTGLYPSYKVREKIETVKYPTYPEAEK
# notes: human FUT8; start codon to the 105th base joined to the 202nd to 1725th base of the cDNA, so that Helix 1 (Pro36-Leu67) is missing; also called Myc-tagged FUT8 Δhelix 1; source: HEK293 FUT8KO, transfected, in lysate; not shown: Myc, C-terminal, kept
# B5: FUT8Δhelix 2 (enzyme, human, UniProt Q9BYC5 1-575, looked up)
# chain: MRPWTGSWRWIMLILFAWGTLLFYIGGHLVRDNDHPDHSSRELSKILAKLERLKQQNEDLRRMAESLRIPEGPIDQGPNGLGKDHEILRRRIENGAKELWFFLQSELKKLKNLEGNELQRHADEFLLDLGHHERSIMTDLYYLSQTDGAGDWREKEAKDLTELVQRRITYLQNPKDCSKAKKLVCNINKGCGYGCQLHHVVYCFMIAYGTQRTLILESQNWRYATGGWETVFRPVSETCTDRSGISTGHWSGEVKDKNVQVVELPIVDSLHPRPPYLPLAVPEDLADRLVRVHGDPAVWWVSQFVKYLIRPQPWLEKEIEEATKKLGFKHPVIGVHVRRTDKVGTEAAFHPIEEYMVHVEEHFQLLARRMQVDKKRVYLATDDPSLLKEAKTKYPNYEFISDNSISWSAGLHNRYTENSLRGVILDIHFLSQADFLVCTFSSQVCRVAYEIMQTLHPDASANFHSLDDIYYFGGQNAHNQIAIYAHQPRTADEIPMEPGDIIGVAGNHWDGYSKGVNRKLGRTGLYPSYKVREKIETVKYPTYPEAEK
# notes: human FUT8; start codon to the 234th base joined to the 316th to 1725th base of the cDNA, so that Helix 2 (Ala79-Arg105) is missing; also called Myc-tagged FUT8 Δhelix 2; source: HEK293 FUT8KO, transfected, in lysate; not shown: Myc, C-terminal, kept
# B6: FUT8 Y100A/R105A (enzyme, human, UniProt Q9BYC5 1-575, looked up)
# chain: T1 sequence (looked up) with Y100A, R105A
# notes: human FUT8 with two point mutations in Helix 2 of the stem region; also called Myc-tagged FUT8 Y100A/R105A; source: HEK293 FUT8KO, transfected, in lysate; not shown: Myc, C-terminal, kept
# B7: soluble His-FUT8 (Arg68-Lys575) (domain or fragment, human, UniProt Q9BYC5 68-575, looked up)
# chain: RIPEGPIDQGPAIGRVRVLEEQLVKAKEQIENYKKQTRNGLGKDHEILRRRIENGAKELWFFLQSELKKLKNLEGNELQRHADEFLLDLGHHERSIMTDLYYLSQTDGAGDWREKEAKDLTELVQRRITYLQNPKDCSKAKKLVCNINKGCGYGCQLHHVVYCFMIAYGTQRTLILESQNWRYATGGWETVFRPVSETCTDRSGISTGHWSGEVKDKNVQVVELPIVDSLHPRPPYLPLAVPEDLADRLVRVHGDPAVWWVSQFVKYLIRPQPWLEKEIEEATKKLGFKHPVIGVHVRRTDKVGTEAAFHPIEEYMVHVEEHFQLLARRMQVDKKRVYLATDDPSLLKEAKTKYPNYEFISDNSISWSAGLHNRYTENSLRGVILDIHFLSQADFLVCTFSSQVCRVAYEIMQTLHPDASANFHSLDDIYYFGGQNAHNQIAIYAHQPRTADEIPMEPGDIIGVAGNHWDGYSKGVNRKLGRTGLYPSYKVREKIETVKYPTYPEAEK
# notes: human FUT8, soluble form from Arg68 to the C terminus (Lys575); Plasmid pcDNA-IH/FUT8; also called purified soluble FUT8; recombinant soluble FUT8; source: COS7, transfected, purified from the culture medium (Ni2+ column, NAP-5 desalting)
# How the values were obtained:
# [1] = molecular target: the molecule itself; assay: split reporter (BiFC, NanoBiT); NanoBiT; LgBiT and SmBiT fusions coexpressed in HEK293 FUT8KO cells; 0.6 μg of lysate protein (TBS, 1% Triton X-100) with Nano-Glo Live Cell Substrate at RT; luminescence relative to empty-vector (Mock) sample
# [2] = molecular target: T1, alpha-1,6-fucosyltransferase FUT8 WT; assay: co-IP; lysates (TBS, 1% Triton X-100) of HEK293 FUT8KO cells coexpressing Myc-tagged FUT8 WT or mutant with 3xFLAG-FUT8 WT; anti-DYKDDDDK antibody magnetic beads, 4 °C overnight; anti-Myc blot; IP signal divided by input, relative to FUT8 WT; conditions: partners not purified
# [3] = molecular target: the molecule itself; assay: native gel or EMSA; Blue Native PAGE (4% to 16%) of purified soluble His-FUT8, Western blot with anti-FUT8
Binder,coprecipitated anti-Myc signal (IP/input) relative to FUT8 WT [2],further results
B1,–,"relative luminescence (NanoBiT, relative to Mock) [1]: 165 relative to Mock"
B2,0.127 relative to FUT8 WT,–
B3,0.122 relative to FUT8 WT,–
B4,0.0934 relative to FUT8 WT,–
B5,0.5 relative to FUT8 WT,–
B6,1.56 relative to FUT8 WT,–
B7,–,binding result [3]: binds
